# Measurements from the DeepSol protein solubility set.
# Test: soluble on expression in E. coli; label from the status in PepcDB or PDB records
row,Sequence,soluble on expression in E. coli
1,EVKLLESGGGLAQPGGSLKLSCAASGFDFRRYWMTWVRQAPGKGLEWIGEINPDSRTINYMPSLKDKFIISRDNAKNSLYLQLSRLRSEDSALYYCVRLDFDVYNHYYVLDYWGQGTSVTVSSASTKGPSVFPLAPSSKSTSGGTAALGCLVKDYFPEPVTVSWNSGALTSGVHTFPAVLQSSGLYSLSSVVTVPSSSLGTQTYICNVNHKPSNTKVDKKVEPKSCD,soluble
2,EVKLVESGGGLVLPGGSLRLSCATSGFTFTDYYMTWVRQPPGKALEWLGFIGNKANDYTTEYSASVKGRFTISRDDSQSILYLQMSTLRAEDRATYYCATVYGNYPYFDVWGVGTTVAVSSATTTAPSVYPLVPGCSDTSGSSVTLGCLVKGYFPEPVTVKWNYGALSSGVRTVSSVLQSGFYSLSSLVTVPSSTWPSQTVICNVAHPASKVDLIKEISGP,soluble
3,EVQLQQSGPELVKPGSSVKISCKASRNTFTDYNLDWVKQSHGKTLEWIGNVYPNNGVTGYNQKFRGKATLTVDKSSSTAYMELHSLTSEDSAVYYCALYYYDVSYWGQGTLVTVSSAKTTPPSVYPLAPGSAAQTNSVTLGCLVKGYFPEPVTVTWNSGSLSSGVHTFPAVLQSDLYTLSSSVTVPSSTWPSQSVTCNVAHPASSTAVDKKIAPA,soluble
4,EVQLVQSGAEVKKPGSSVKVSCKASGGTFSNYAINWVRQAPGQGLEWMGGIIPIFNIAHYAQRFQGRVSITADESTSTAYMELSSLRSEDTAVFYCASPYPNDYNDYAPEEGMSWYFDLWGRGTLVTVSPASTKGPSVFPLAPSSKSTSGGTAALGCLVKDYFPEPVTVSWNSGALTSGVHTFPAVLQSSGLYSLSSVVTVPSSSLGTQTYICNVNHKPSNTKVDKKVEPK,soluble
5,FDISVLSVAPLRQGETMKQGIDSAVSLAKAVDNMGYKRIWFAEHHNHDAYASAATVSIVQHILANTKDIRVGSGGIMLPNHSPLIVAEQFGTLETLYPNRVDLALGRAPGTDQKTADVIRRSNHNGVFFFEREVNDILRFVGDKSVQGEVRAYPGIGTHVPVFVLGSSTDSAEIAAKLGLPYAFGAQFSPHSMEEALSIYRENFQPSSYLQEPYVIACINVIAAESIDEASFISASHLQVYIDIYTNNLSKLIPPTENFLESLSQFELEILHSRLGYTIMGDRETIRRELIDFQQMYHADELIVLSNIYELSKEIQSYEILKQVVDELFKKRM,not soluble
6,FHSVLIANVNSGLGELASDADLTQVKGKTLTFGSESSTSGRLMPQYYLEQAGVSLEDFQGEVGFSASHDATIQLVEAGTYDLGMLNEQVWNSRVEAGEVDTNRVNVIWRSPAYYDYHWVISPDVDERYGEG,not soluble
7,FISDLHLEAERPDITRAFLSFLDERARRAEALYILGDFFEAWIGDDGMDAFQRSIAQSLRQVADGGTRIYLMHGNRDFLIGKAFCREAGCTLLPDPSVIDLYGEPVLLMHGDSLCTRDEAYMRLRRWLRNPLTLWVLRHLPLATRHKLARKLRKESRAQTRMKAVDIIDVTPEEVPRVMRGHGVRTLIHGHTHRPAEHPLDIDGQPARRIVLGDWDRQGWALEIDANGHR,not soluble
8,FLSDGKEIIAEKDEAIRETVKLLEEGHILAIKGIGGTHLACKVGEDDVVLELRKRLGRPTQPFAVMSKIEYTELFAEFDEDEKNALLSLRRPIVVLKKSQDYDKYFSKYVSNLDTIGVMFPYSGLHYLLFDKEIAYVMTSANLPGLPMVKDNDEILKKLNGIADYFLLHNRRIVNRCDDSVVKKVADRLVFLRRSRGFAPEPVKV,not soluble
9,FNLKTPGREDDASSESGDNAEAERAPAFIRALGGAANLEVVDACTTRLRLRLVDRNKASDAQLKALGAMAVVRPGKAGSLQVVVGPQADSIADEIRRALPFDTQPGEAVPPLGSPHTAEEVVAMQATVDAAEAQAWLGALGGAGNLREVRDVALTRLRVSVADERKLATEQLRRLGGQGVSSLAGGICHILVGPRAAALSQALQPLLR,not soluble
10,FQGAMSSSIDISKINSWNKEFQSDLTHQLATTVLKNYNADDALLNKTRLQKQDNRVFNTVVSTDSTPVTNQKSSGRCWLFAATNQLRLNVLSELNLKEFELSQAYLFFYDKLEKANYFLDQIVSSADQDIDSRLVQYLLAAPTEDGGQYSMFLNLVKKYGLIPKDLYGDLPYSTTASRKWNSLLTTKLREFAETLRTALKERSADDSIIVTLREQMQREIFRLMSLFMDIPPVQPNEQFTWEYVDKDKKIHTIKSTPLEFASKYAKLDPSTPVSLINDPRHPYGKLIKIDRLGNVLGGDAVIYLNVDNETLSKLVVKRLQNNKAVFFGSHTPKFMDKKTGVMDIELWNYPAIGYNLPQQKASRIRYHESLMTHAMLITGCHVDETSKLPLRYRVEVSWGKDSGKDGLYVMTQKYFEEYCFQIVVDINELPKELASKFTSGKEEPIVLPIWDPMGALA,soluble
11,FSDILEDRIERLNACFAKAIARYNYPGVYRGVFPVKCNQERHLIEDLVKFGKPHQFGLEAGSKPELMIALAVLDTPGALLVCNGYKDREYIETAMLAQRLGQTPIIVLEQIEEVDLVIDANRQLGIKPILGVRAKLSTQGMGRWGASSGDRAKFGLTMPEVIEAVDKLREANLLDSLQLMHFHIGSQISAINVIKDAIQEASRIYVELAMLGADMKYLDVGGGLGVDYDGSQTNFYASKNYNMQNYANDIVAELKDTCAERQITVPTLISESGRAIAS,not soluble
12,FWMELQAVDSYQVKASGILTGADRKIITMLYQPLMGAECLALYQTLFTEVEENRLWSEAHSHVQLLNMLDISLKALFEARLKLEGLGLLKSYVKTENDQRFYIYEILPPLSPEKFFSDGLLNIYLYSKIGNAQFQRLRRFFADETFETDTYSEITRSFQDVFEPFKGGSSAVPSESSQVLVDKIVPKEIEFDDASFDFNLFLSLLSPGMIAREKITKEVRQTILKLHGIYQVSEKDMPSYLYRALDANGEIDIVYLRKIVREGYTIENGAPPKLQMKQETPGKKEPEEALNDEEALQVYLESITPFQLLVDISDGAIPAETDLRVVEEVMNQQNLPVPVMNVLIEYVLLRLDRKLSKNYMMTIAAHWKRKNVKTAKEAMDLAWQEHEKYKRLQEEPATPKNNNYNRNYQKSTRKEILPDWFDKEQVAPAENKMTDKEKQTLEEQVREIKERLNKR,not soluble
13,GAASPGPSRPGLVPVSIIGAEDEDFENELETNSEEQNSQFQSLEQVKRRPAHLMALLQHVALQFEPGPLLCCLHADMLGSLGPKEAKKAFLDFYHSFLEKTAVLRVPVPPNVAFELDRTRADLISEDVQRRFVQEVVQSQQVAVGRQLEDFRSKRLMGMTPWEQELAQLEAWVGRDRASYEARERHVAERLLMHLEEMQHTISTDEEKSAAVVNAIGLYMRHLGVRTKSGDKK,soluble
14,GAEDHANHEHDDEMSAAAAHGVESLIYRRDTPFHPVRFNDWLDDWDGAIVRAKGFAWVASRPETVLGVSQAGPSVQAGPIGEWGNDDPSTRLVFIGQEMDGDALIGELDDCLATDKERTETFASDPFPREG,not soluble
15,GAERTIQLPKPDMNRAGLLMKALSERHSTREYASKALSNTDLSDLLWAANGINRSSEGKRTAPSAMNRQDIDIYVVLPQGTYLYDAKGHKLNLISEGDHRSAVAGGQAFVNNAPVSLVLVSDLSKLGDAKSNHVQLMGAMDAGIVSQNISLFCSAARLATVPRASMDLVRLKAALKLKDTQMPMMNHPVGYFK,soluble
16,GAMGKTVSQSQRLEHNWNKFFASFVPNLIKKNPQSKQFDHENIKQCAKDIVKILTTKELKKDSSRAPPDDLTKGKRHKVKEFINSYMDKIILKKKQKKALGLSS,soluble
17,GAMGNLRLIGVPESDVENGTKLENTLQDIIQENFPNLARQANVQIQEIQRTPQRYSSRRATPRHIIVRFTKVEMKEKMLRAAREKGRVTLKGKPIRLTVD,soluble
18,GDEEKRNRAITARRQHLKSVMLQIAATELEKEEGRREAEKQNYLAEH,soluble
19,GDFAYTVGFNMSKNWNKVTNLGANDPIIESPWIKKVGYAIGTFYGYRSDGLLTQEDIDTGNYITDGLVPQAGDIKYVDLDGDGKLTDKDRTYIGCDVPDITYGVNLNLRYKGFELSMFGQGVTGTKVNFSMENAWAFSDYASPRKYHLKRWTVDNPNPNAAYPRIYPRTSKHSTYNQYFSDYWLFNADYFRIKNITFGYSFQKPVLQKLSLEALKLYVAAENPFTIRADHRMEDFDPETASGRGVNTRGTSSIAFGVNLTF,not soluble
20,GDSTILKVLQSNIQHVQLYENPVLQEKALTCIPVSELKRKAQEKLFRARKLDKGTNVSDEDFLLLELLHWFKEEFFRWVNNIVCSKCGGETRSRDEALLPNDDELKWGAKNVENHYCDACQLSNRFPRYNNPEKLLETRCGRCGEWANCFTLCCRALGFEARYVWDYTDHVWTEVYSPSQQRWLHCDACEDVCDKPLLYEIGWGKKLSYIIAFSKDEVVDVTWRYSCKHDEVMSRRTKVKEELLRETINGLNKQRQLSLSESRRKELLQRIIVELVEFISPKTPRPGLEHHHHHH,soluble
21,GDTSWIKTGKVAWDWWNDWNLKGVPFKAGINMDTYKYYIDFASRNGLEFIVLDEGWYDPKSGDMLTVIPELDLPELIAYGKSKGVEIVLWTVFNVLDSQLEAACKKYADMGIKGFKVDFLDRDDQTAVEMVYRIAEMTARYKLTLDLHGIYKPTGINRTYPHII,not soluble
22,GDYYDYLFKIVLIGDSGVGKSNLLSRFTRDEFNLESKSTIGVEFATKSIQLKNNKIIKAQIWDTAGQERYRAITSAYYRGAVGALLVYDITKKNSFENIEKWLKELRDNADSNIVILLVGNKSDLKHLRVINDNDATQYAKKEKLAFIETSALEATNVELAFHQLLNEIYNVRQKKQATKN,soluble
23,GESLFKGPRDYNPISSTICHLTNESDGHTTSLYGIGFGPFIITNKHLFRRNNGTLLVQSLHGVFKVKNTTTLQQHLIDGRDMIIIRMPKDFPPFPQKLKFREPQREERICLVTTNFQTKSMSSMVSDTSCTFPSSDGIFWKHWIQTKDGQAGSPLVSTRDGFIVGIHSASNFTNTNNYFTSVPKNFMELLTNQEAQQWVSGWRLNADSVLWGGHKVFMSKPEEPFQPVKEATQLMNELVYSQ,soluble
24,GEYKMMMARVAALPEDYQFVFKKIQNYMWNFSAGNGMDMLHIQYELIDLFEAGAAEGRQVLDITGEDVASFADELVANAKTYVSK,soluble
25,GFIDSHVHIESSMVSPKEFARAVISRGTTTIIVDPHEIANVCGMDGIKYMMEETKNMPLDVFFMLSSCVPATSFETSGAVLKAEDLKELIDSDRVLGLGEMMNYPGVLSREEEVLNKLKLAGSYNKIVDGHAPSVRGNELNAYNLAGIKTDHECSSIEEMNEKIRNGMYIAIREGSAAKNLDILIKGVNAKNERRIMFCADDRHPDDILKSGHMDNCVRRAIYNGIENTAAIRMASINAAECYKLERVGAIAPSYKADLVVLEDLKDVKVNMVIKSGEVVFKDNKHLKDMGSKSDI,not soluble
26,GFQSNAMKQETPITLHVKSVIEDDGNQEVIEFRTTGFYYVKQNKVYLSYYEEHDLGKVKTIVKVSEGEVLVMRSGAVKMNQRFVTGASTIAKYKMSFGELELKTSTKSIQSDLDEEKGRISIAYDMHVGDEQEHLHNMTITYEGGTHA,soluble
